13 sequences from the DeepSol protein solubility set can be followed below.

The data set in a line: soluble on expression in E. coli; label from the status in PepcDB or PDB records.
For “MSLANADTYQPSYSTAGFYQLSNTGRTVYNMNPAWRFYKGNIEGAEQPRFNDKDWNIVSLPDGIEYLPTEASGCINYQGEIWYRKHFTPKESWKGKQQFLHFEAIMGKSKIWVNGKLLKEHFGGFLPVIVDVTSSLKYGEDNVITVWADNSDDPSYPPGKPQDALDFAYFGGIYRDCWMIVHNKVFITDPNYENETAGGGLFVSFDKVSEQSAQLKLDAHIRNTSGKSFSGKIIYELYDRDDKRVLSKETGLSVSKDLAKQISCKVTVETPHLWSPDSPYLYKLHIYIKDKAGNTIDGYYRRIGIRSIEFKGKDGFWLNGKPYPYPLMGANRHQDFAVIGNALPNSLHWRDAKKLRDAGMRVIRNAHYPQDPAFMDACDELGLFVIVNTPGWQFWNDQPIFAQRVYSDIRNMVRRDRNHPSVWMWEPILNETWYPADFAKNVVDILNEEYPYPYCYAGCDVTARGHEYFPIHFTHPMNGGGGAFNTENLDPKISYFTREWGDNVDDWNSHNSPSRVNRGWGEVPMLIQAQGYAKNDYQLTSYDGLYRTSRQHMGGCLWHSFDHQRGYHPDPFYGGIMDAFRQPKLSYYMFCSQRPAEPNKELIADEGHHHHHH”, the “soluble on expression in E. coli” value is given as “soluble”.

With “MAGDPMLLTGTLKREAGNKMGQKPKIAIFGGGTGLSVLLRGLKHKPVDITAIVTVADDGGSSGRLRNELKIPPPGDIRNVLAALSDVEPLVEDLFQHRFNKGNDLTGHSLGNLILAAMTNITGDFFHAVTEMSKVLNVRGKVLPAANASVVLHAEMEDGRVVSGESTIPEYGQRIKRVFLTPEQIDPLPETIDVIREADLIIIGPGSLYTSILPNLLVPKIGEEVIKAPAKKVYICNVMTQPGETLHYTAADHVKALNQHMGCGFIDTILVNSEDIPDEIKRKYEMESARPVDFDIEELKAMGLEVIRDQIVTYKNDVIRHDTHKVASLLVDLLKELEHHHHHH”, the “soluble on expression in E. coli” value was “soluble”. The result for “MVAMFLAVAVVLGLATSPTAEGGKATTEEQKLIEDVNASFRAAMATTANVPPADKYKTFEAAFTVSSKRNLADAVSKAPQLVPKLDEVYNAAYNAADHAAPEDKYEAFVLHFSEALRIIAGTPEVHAVKPGA” reads “soluble”; that for “MAHHHHHHMGQGFSRAQMEEYKELVKDRFSEEAIEFLFMKFHKAAPEGVMTPVEFKRYIDSTGVYKNYRRTHLASWFPSYAKYTHSKGGNRAVRKTSAQILDREMYLHLFRAYDRDCDGVISFREFLLYHLAVMYSTEELFVVVFNAYDDDQDGYLSLDDIRNTITAATRYVGDCDVEDQEVQRVIDEEAQRLMFFLDVRKDGRIRRDDMRLITQKHPEVLEKMKNLM”, “soluble”; that for “MNYQNDDLRIKEIKELLPPVALLEKFPATENAANTVAHARKAIHKILKGNDDRLLVVIGPCSIHDPVAAKEYATRLLALREELKDELEIVMRVYFEKPRTTVGWKGLINDPHMDNSFQINDGLRIARKLLLDINDSGLPAAGEFLDMITPQYLADLMSWGAIGARTTESQVHRELASGLSCPVGFKNGTDGTIKVAIDAINAAGAPHCFLSVTKWGHSAIVNTSGNGDCHIILRGGKEPNYSAKHVAEVKEGLNKAGLPAQVMIDFSHANSSKQFKKQMDVCADVCQQIAGGEKAIIGVMVESHLVEGNQSLESGEPLAYGKSITDACIGWEDTDALLRQLANAVKARRG”, “soluble”. On to “MFEKQEVEQKKELKILEIIKEAIELGASDIHLTAGAPPAVRIDGYIKFLKDFPRLTPEDTQKLAYSVMSEKHRQKLEENGQVDFSFGVRGVGRFRANVFYQRGSVAAALRSLPAEIPEFKKLGLPDKVLELCHRKMGLILVTGPTGSGKSTTIASMIDYINQTKSYHIITIEDPIEYVFKHKKSIVNQREVGEDTKSFADALRAALREDPDVIFVGEMRDLETVETALRAAETGHLVFGTLHTNTAIDTIHRIVDIFPLNQQEQVRIVLSFILQGIISQRLLPKIGGGRVLAYELLIPNTAIRNLIRENKLQQVYSLMQSGQAETGMQTMNQTLYKLYKQGLITLEDAMEASPDPKELERMIRGGRHHHHHH”, for which the “soluble on expression in E. coli” value is “soluble”. Turning to “MKILITGGAGFIGSAVVRHIIKNTQDTVVNIDKLTYAGNLESLSDISESNRYNFEHADICDSAEITRIFEQYQPDAVMHLAAESHVDRSITGPAAFIETNIVGTYALLEVARKYWSALGEDKKNNFRFHHISTDEVYGDLPHPDEVENSVTLPLFTETTAYAPSSPYSASKASSDHLVRAWRRTYGLPTIVTNCSNNYGPYHFPEKLIPLVILNALEGKPLPIYGKGDQIRDWLYVEDHARALHMVVTEGKAGETYNIGGHNEKKNLDVVFTICDLLDEIVPKATSYREQITYVADRPGHDRRYAIDAGKISRELGWKPLETFESGIRKTVEWYLANTQWVNNVKSGAYQSWIEQNYEGRQ”, the “soluble on expression in E. coli” value was “soluble”.

As for “MLSLDQIPHHIRHGIVGSRLIQIRGRVTQVTGTLLKAVVPGVRIGELCYLRNPDNSLSLQAEVIGFAQHQALLIPLGEMYGISSNTEVSPTGTMHQVGVGEHLLGQVLDGLGQPFDGGHLPEPAAWYPVYQDAPAPMSRKLITTPLSLGIRVIDGLLTCGEGQRMGIFAAAGGGKSTLLASLIRSAEVDVTVLALIGERGREVREFIESDLGEEGLRKAVLVVATSDRPSMERAKAGFVATSIAEYFRDQGKRVLLLMDSVTRFARAQREIGLAAGEPPTRRGYPPSVFAALPRLMERAGQSSKGSITALYTVLVEGDDMTEPVADETRSILDGHIILSRKLAAANHYPAIDVLRSASRVMNQIVSKEHKTWAGDLRRLLAKYEEVELLLQIGEYQKGQDKEADQAIERMGAIRGWLCQGTHELSHFNETLNLLETLTQ”, the “soluble on expression in E. coli” value was “not soluble”.

For “MSTLELHHIGKSYQSVMVLDRIDLHVPPGSRTAIVGPSGSGKTTLLRIIAGFETPDAGKVILQGKAMFDGTTYVPAHKRGIGFVPQDGALFPHFTVAGNIGYGLKGSQRDKERRINELMDMVALDRRLSALWPHEISGGQQQRVALARALAQRPVLMLLDEPFSALDTALRASTRKAVAELLSEANIASILVTHDQTEALSFADQVAVMRAGKLAHVGPPQELYLRPVDEPTATFLGETLMLTAQLGTGLAHCALGQVKVDNPHRRGEARIMLRPEQITLTPLRPEQYNAASCLAKVIAIDFAGFISTLTLQIISSGETIEIKTISREDLHVGLTVGLDIMGQAHIFAE”, the “soluble on expression in E. coli” value was “not soluble”. The entry for “GAMGMKVDVGPDPSLVYRPDVDPEMAKSKDSFRNYTSGPLLDRVFTTYKLMHTHQTVDFVSRKRIQYGSFSYKKMTIMEAVGMLDDLVDESDPDVDFPNSFHAFQTAEGIRKAHPDKDWFHLVGLLHDLGKIMALWGEPQWAVVGDTFPVGCRPQASVVFCDSTFQDNPDLQDPRYSTELGMYQPHCGLENVLMSWGHDEYLYQMMKFNKFSLPSEAFYMIRFHSFYPWHTGGDYRQLCSQQDLDMLPWVQEFNKFDLYTKCPDLPDVESLRPYYQGLIDKYCPGTLSW” is “soluble”; for “MAHHHHHHMGTLEAQTQGPGSMAKTMKAAVVRAFGKPLTIDEVPIPQPGPGQIQVAIQASGVCHTDLHAAEGDWPVKPNPPFIPGHEGVGFVSAVGSGVKHVKEGDRVGIPWLYTACGHCRHCLGGWETLCEEQLNTGYSVNGGFAEYVVADPNFVGHLPKNIDFNEIAPVLCAGVTVYKGLKVTDTKPGDWVVISGIGGLGHMAVQYARAMGLNVAAVDIDDRKLDLARRLGATVTVNAKTVADPAAYIRKETDGGAQGVLVTAVSPKAFEQALGMVARGGTVSLNGLPPGDFPLSIFNMVLNGVTVRGSIVGTRLDLQESLDFAADGKVKATIQTGKLEDINAIFDDMRQGNIEGRIVMDLTQ” it is “soluble”; for “GLEAVRKRPGMYIGSTSERGLHHLVWEIVDNSIDEALAGYANQIEVVIEKDNWIKVTDNGRGIPVDIQEKMGRPAVEVILTSSVVNALSQDLEVYVHRNETIYHQAYKKGVPQFDLKEVGTTDKTGTVIRFKADGEIFTETTVYNYETLQQRIRELAFLNKGIQITLRDERDEENVREDSYHYE” it is “soluble”. The result for “MRSSQAIDFERIPEMEDKWRKEITAMTVTLQDKRKAIQNDEILRGVHPKSHGCLDAEFTVNRDIAPQFQVGLFAQPGKCFRARIRYSNADVLKRADLEKGQDATGARFLNHGSRGMAIKVLDVGAPVLLEDGCARNQDFLMVNTPEFAFRNVRDYLRLTKALCASADGADPLLFFLPGELLKRGMMDMSGSLLPAPAGEPPQNAGLRALFEANRAFFDDFDAEDMQGVISAAGVVGKIQSTPVRNPLFAPYFSAASFRFGKDRVMRFSVVPLQSEEMAADMASDAFEDFSDDYLSQALALSVATNEPIKLSFRIQIAHEEDIVNDIDGMIENAAKTWDEDQFSHTEVAQITINPPCPSAELVDTCKPLLFTPWHAVVDFEPLGGINRLRKPVYSTSAAFRRSVLEHHHHHH” reads “not soluble”.
